Experimental data taken from patent US11193150B2, “Nepetalactol oxidoreductases, nepetalactol synthases, and microbes capable of producing nepetalactone” (Zymergen Inc., priority 2017, dated 2021).

Key:
nepetalactol [1] = experiment: In vitro conversion of nepetalactol to nepetalactone by candidate NORs in clarified cell lysate with NAD+ or NADP+ (GC-MS); assay type: biochemical; settings: clarified lysate of E. coli BL21 (DE3) expressing the candidate, 30° C., 2 hours
Protocol: BL21 (DE3) strains were streaked out on LB plates containing kanamycin from glycerol stock and grown overnight at 37° C. A single colony was inoculated into 4 mL of LB medium containing kanamycin in 15 mL disposable culture tubes and incubated overnight at 30° C. with shaking at 250 rpm. 500 μL of the overnight culture was subcultured into 50 mL of LB medium containing kanamycin in a 250 mL baffled flask. The culture was grown at 37° C. and the optical density at 600 nm (OD600) was monitored. When OD600 reached between 0.6-1, the cultures were cooled on ice for 15 minutes. The cultures were then induced with 100 μM of isopropyl β-D-1-thiogalactopyranoside and incubated at 15° C. with shaking at 250 rpm for roughly 20 hours. Cultures were pelleted by centrifugation in 50 mL centrifuge tubes. The supernatant was decanted and the pellets were frozen at −20° C. for later processing.
Pellets were thawed on ice and resuspended with 3 mL of cold lysis buffer: 50 mM sodium phosphate, pH=7.4, 100 mM sodium chloride. All remaining steps were performed either on ice or at 4° C. The cell mixture was transferred to a 15 mL centrifuge tube and disrupted with three rounds of sonication using the Branson Sonifier 450 with a double-level microtip at 70% amplitude. A single round of sonication consisted of 6 cycles of 10 seconds with the sonicator on, and 10 seconds off. Between each round, the cell mixture was allowed to sit on ice for a minute to cool. The lysed cell mixture was transferred to 1.7 mL centrifuge tubes and centrifuged at maximum speed in a microcentrifuge for 20 minutes. The supernatant (clarified cell lysate) was collected in a separate tube and used for in vitro characterization.
The in vitro reactions were setup as follows: 2 μL of 100 mM NAD+ or NADP+ and 10 μL of 100 uM nepetalactol was added to 188 μL of the clarified cell lysate. The reactions were incubated at 30° C. shaking at 200 rpm for 2 hours. […] The organic layer was withdrawn and analyzed with gas chromatography coupled to mass spectrometry (GC-MS). […]

nepetalactol [2] = experiment: Production of nepetalactone from nepetalactol in Saccharomyces cerevisiae strains expressing NOR candidates from 2μ plasmid pESC-URA; assay type: cell-based; settings: 2% galactose, 100 mg/L of nepetalactol fed, 30° C., 24 hours
Protocol: 300 μL of ethyl acetate was added to the cultures. The plates were sealed with a PlateLoc Thermal Microplate Sealer and the plates were shaken for one min at 750 rpm. The plates were centrifuged and the ethyl acetate layer was collected and analyzed by liquid chromatography coupled to mass spectrometry (LC-MS). Target analytes were quantified against authentic standards.
The plasmids were individually transformed into chemically competent Saccharomyces cerevisiae cells as described in EXAMPLE 2. Transformants were selected on SD-URA agar plates. Three to four replicates were picked into SD-URA liquid medium and cultured at 30° C. for one to two days with shaking at 1000 rpm. Cultures were glycerol stocked at a final concentration of 16.6% glycerol and stored at −80° C. until later use.
10 μL of the glycerol stocked strains was inoculated into 300 μL of minimal media lacking uracil, and containing 4% glucose in 96-well plates to produce seed cultures. The plates were incubated at 30° C. at 1000 rpm for 1-2 days. 10 μL of the seed cultures was then inoculated into 300 μL of minimal media lacking uracil, and containing 2% galactose and 100 mg/L of nepetalactol. 30 μL of methyl oleate was next added to the wells. The main culture plates were further incubated at 30° C., 1000 rpm for 24 hours before assays were performed to assess cell growth and titer. […]

B1: NcatNOR15: candidate nepetalactol oxidoreductase (NOR) from Nepeta cataria, protein SEQ ID NO: 561 (protein, listed as Nepeta cataria)
chain: MAKTPETEHPVKAFGYAATDNSGTFSPFKFSRRATGERDVQFKVLYCGVCHSDLHMVKNEWGVTHYPIVPGHEIVGVATEVGSKVEKVKVGDKVGVGVIVGSCRQCDQCSNDLENYCSKQILTYGAPYLDGTITRGGYSDIMVADEHFIIRWPENFPLDAGAPLLCAGITTYSPLRYFGLDKPGLRVGVNGLGGLGHVAVKFAKAFGTKVTVISSSLRKKKEAVEKLGVDEFLVSTDPEQMQAAIGTLDGIIDTVSAEHSVVSLLSLLKPHGRLIVVGAPEKPHQLPAFPLITGRKSISGSAIGGMKETQEMIDFAAKHNILPDVEVIPIDYINTAMERLLKSDVKYRFVIDVEKSLKA
In the case of B1, the “oxidation of nepetalactol to nepetalactone” value (“oxidation of nepetalactol” below) (nepetalactol [1]) is reported as “can oxidize nepetalactol to nepetalactone”.

B2: GAR_NOR15: NOR candidate codon-optimized for S. cerevisiae (SEQ ID NO: 1393), expressed from pESC-URA (protein, listed as Nepeta cataria)
chain: MADKEGEVVCVTGGSGFIGSWLVSLLLRRGYSVRATVKNLGDERETKHLEAIEGADSRLSLFQIDLLDYDSVATAVGDAAGVFHLASPCTIDQVNDPQRELLDPAIKGTLNVLKAAKNLGVRRVVVTSSISAMIASSNSLAETGEDCWIDEDYCRQNGLWYPVSKALAEKAAWKLAEENGLDIVVVNPGMVVGPILPPALNSSMQLMLHVLQGKDFFEGFFMGLVHVKDVALAQILLYENTSASGRHLCVESLSRYDDFAKQMEKLYPEYKLPRFSNNAQHGSLKSDAALKKLRDLGIEFAPLEQIVKDSIESLRSKGYIS
For B2, the “nepetalactone produced (titer)” value (nepetalactol [2]) was 93 mg/L.

B3: NcatNOR34: candidate nepetalactol oxidoreductase (NOR) from Nepeta cataria, protein SEQ ID NO: 578 (protein, listed as Nepeta cataria)
chain: MAFCRSSLLLRKALGGSRRAAAAATCSSAYACGWQSERGRWYSGGEGTTISAPGYHVNTAPSHMTGAVFWDKDKPITYEEFEMPRPKANEVLIKTKACGACHSDLHVIKGDLKFPCPCILGHEITGEVVEHGPLTETKYIERYPVGSKVIGAFIMPCGSCFYCSRGEDDLCEPYFAYNRAKGTLYDGQTRLFLRGSGKPVHMWSMSGLAEYCVTPVNGLGALPDTLPYAESSVLGCAVFTAYGAIAHAAEVKPGNSVAVIGIGGVGSSCLQIAKAFGASEIIAVDVEDGKLETAKTFGATHIINSRKEDAIAKIKELTDGRGVDIAVEAIGGPKTFAQCVGSVRAGGKAVMIGLSPTGGKGEVEITQLVRRKVKVIGSYGGRAMTDLPKLVELAEQGTFNLEAAVTRRYKFEEVAQAYQDLQNKTIVGRGVIEIM
B3 was tested, and the “oxidation of nepetalactol” value (nepetalactol [1]) was “can oxidize nepetalactol to nepetalactone”.

B4: NcatNOR21: candidate nepetalactol oxidoreductase (NOR) from Nepeta cataria, protein SEQ ID NO: 566 (protein, listed as Nepeta cataria)
chain: MAKSVNAVGWAARDTSGLLSPLKFARPAAGDRDVQFKVLYCGICHSDLHSIKNEWGNTQYPIVPGHEIVGVVTAVGPKATKFKAGDKVGVGCLVNSCRHCDQCAADLENYCPQLVQTYNSVLADGSVTYGGYSDVMTADEDFVIRWPENFPMDKGAPLLCAGVTTYSPLRYYGLDKPGLHIGVVGLGGLGHVAVKFAKAFGMKVTVISTSAGKKKEAIETLGADAFLISRDASEMQAAAGTLDGMIDTVSAQHPLPPLLSLLKPHGKLILVGAPEKPFELPAFPLLMGRKTVAGSVIGGLKETQEMIDFAAKHNLLPEVEMIPMDYVNTAMERLAKADVKYRFVIDVGNTLTKAD
For B4, the “oxidation of nepetalactol” value (nepetalactol [1]) was “can oxidize nepetalactol to nepetalactone”.
